The source of these data is patent US20060110789.

For data set [1], the target named is T1, diketide-ACP2(4) (DEBS ACP2 with the C-terminal linker of module 4, loaded with diketide), Q03131.
T1 chain: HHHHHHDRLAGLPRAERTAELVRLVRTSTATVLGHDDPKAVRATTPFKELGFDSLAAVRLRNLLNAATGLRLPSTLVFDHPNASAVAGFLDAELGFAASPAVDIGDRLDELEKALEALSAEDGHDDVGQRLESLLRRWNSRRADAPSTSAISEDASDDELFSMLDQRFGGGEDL

For data set [2], the target named is T2, diketide-ACP4(4) (DEBS ACP4 with its natural C-terminal linker, loaded with diketide), Q03132.
T2 chain: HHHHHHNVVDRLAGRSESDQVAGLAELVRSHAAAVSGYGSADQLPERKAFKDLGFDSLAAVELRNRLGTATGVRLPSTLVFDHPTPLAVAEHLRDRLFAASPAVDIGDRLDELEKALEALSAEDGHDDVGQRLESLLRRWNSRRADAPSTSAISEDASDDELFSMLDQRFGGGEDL

Data set [3] deals with T3, diketide-ACP2(2) (DEBS ACP2 with its natural C-terminal linker, loaded with diketide), Q03131.
T3 chain: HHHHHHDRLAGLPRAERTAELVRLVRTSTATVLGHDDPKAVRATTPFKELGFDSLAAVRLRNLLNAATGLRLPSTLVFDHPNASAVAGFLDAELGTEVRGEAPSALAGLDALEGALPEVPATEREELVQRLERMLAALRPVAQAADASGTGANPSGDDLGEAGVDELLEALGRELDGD

B1: (5)M3+TE (module 3 of DEBS with the N-terminal linker of module 5, fused to thioesterase) (protein)
chain: MSGDNGMTEEKLRRYLKRTVTELDSVTARLREVEHRAGIAIVSMACRLPGGVNTPQRLWELLREGGETLSGFPTDRGWDLARLHHPDPDNPGTSYVDKGGFLDDAAGFDAEFFGVSPREAAAMDPQQRLLLETSWELVENAGIDPHSLRGTATGVFLGVAKFGYGEDTAAAEDVEGYSVTGVAPAVASGRISYTMGLEGPSISVDTACSSSLVALHLAVESLRKGESSMAVVGGAAVMATPGVFVDFSRQRALAADGRSKAFGAGADGFGFSEGVTLVLLERLSEARRNGHEVLAVVRGSALNQDGASNGLSAPSGPAQRRVIRQALESCGLEPGDVDAVEAHGTGTALGDPIEANALLDTYGRDRDADRPLWLGSVKSNIGHTQAAAGVTGLLKVVLALRNGELPATLHVEEPTPHVDWSSGGVALLAGNQPWRRGERTRRARVSAFGISGTNAHVIVEEAPEREHRETTAHDGRPVPLVVSARTTAALRAQAAQIAELLERPDADLAGVGLGLATTRARHEHRAAVVASTREEAVRGLREIAAGAATADAVVEGVTEVDGRNVVFLFPGQGSQWAGMGAELLSSSPVFAGKIRACDESMAPMQDWKVSDVLRQAPGAPGLDRVDVVQPVLFAVMVSLAELWRSYGVEPAAVVGHSQGEIAAAHVAGALTLEDAAKLVVGRSRLMRSLSGEGGMAAVALGEAAVRERLRPWQDRLSVAAVNGPRSVVVSGEPGALRAFSEDCAAEGIRVRDIDVDYASHSPQIERVREELLETTGDIAPRPARVTFHSTVESRSMDGTELDARYWYRNLRETVRFADAVTRLAESGYDAFIEVSPHPVVVQAVEEAVEEADGAEDAVVVGSLHRDGGDLSAFLRSMATAHVSGVDIRWDVALPGAAPFALPTYPFQRKRYWLQPAAPAAASDELAYRVSWTPIEKPESGNLDGDWLVVTPLISPEWTEMLCEAINANGGRALRCEVDTSASRTEMAQAVAQAGTGFRGVLSLLSSDESACRPGVPAGAVGLLTLVQALGDAGVDAPVWCLTQGAVRTPADDDLARPAQTTAHGFAQVAGLELPGRWGGVVDLPESVDDAALRLLVAVLRGGGRAEDHLAVRDGRLHGRRVVRASLPQSGSRSWTPHGTVLVTGAASPVGDQLVRWLADRGAERLVLAGACPGDDLLAAVEEAGASAVVCAQDAAALREALGDEPVTALVHAGTLTNFGSISEVAPEEFAETIAAKTALLAVLDEVLGDRAVEREVYCSSVAGIWGGAGMAAYAAGSAYLDALAEHHRARGRSCTSVAWTPWALPGGAVDDGYLRERGLRSLSADRAMRTWERVLAAGPVSVAVADVDWPVLSEGFAATRPTALFAELAGRGGQAEAEPDSGPTGEPAQRLAGLSPDEQQENLLELVANAVAEVLGHESAAEINVRRAFSELGLDSLNAMALRKRLSASTGLRLPASLVFDHPTVTALAQHLRICCAGTAAISGPHEFTRLAGALRGIAPVRAVPQPGYEEGEPLPSSMAAVAAVQADAVIRTQGDKPFVVAGHSAGALMAYALATELLDRGHPPRGVVLIDVYPPGHQDAMNAWLEELTATLFDRETVRMDDTRLTALGAYDRLTGQWRPRETGLPTLLVSAGEPMGPWPDDSWKPTWPFEHDTVAVPGDHFTMVQEHADAIARHIDAWHHHHHH
For B1, in data set [1], the “KM of transfer and elongation, fold increase against the natural linker pair (diketide-ACP2(2) with (3)M3+TE)” value is given as “increases the KM for the ACP2-module 3 reaction by approximately 7-fold”; the catalytic efficiency (kcat/KM) (in general, the turnover number divided by the Michaelis constant) was “the kcat/KM value decreases to 56 min^-1mM^-1”. For the same protein, in data set [2], the “kcat/KM, fold decrease against the matched reaction (FIG. 27 C)” value is “fell approximately 3-5 fold and 80-200 fold, respectively”; the “triketide lactone formation at 20 µM substrate (FIG. 27 C)” value is on record as “transfer of diketide from the donor ACP to the acceptor module occurred at 20 µM substrate concentration”.

B2: M3+TE (module 3 of DEBS with its own N-terminal linker, fused to thioesterase) (protein)
chain: VTDSEKVAEYLRRATLDLRAARQRIRELESIAIVSMACRLPGGVNTPQRLWELLREGGETLSGFPTDRGWDLARLHHPDPDNPGTSYVDKGGFLDDAAGFDAEFFGVSPREAAAMDPQQRLLLETSWELVENAGIDPHSLRGTATGVFLGVAKFGYGEDTAAAEDVEGYSVTGVAPAVASGRISYTMGLEGPSISVDTACSSSLVALHLAVESLRKGESSMAVVGGAAVMATPGVFVDFSRQRALAADGRSKAFGAGADGFGFSEGVTLVLLERLSEARRNGHEVLAVVRGSALNQDGASNGLSAPSGPAQRRVIRQALESCGLEPGDVDAVEAHGTGTALGDPIEANALLDTYGRDRDADRPLWLGSVKSNIGHTQAAAGVTGLLKVVLALRNGELPATLHVEEPTPHVDWSSGGVALLAGNQPWRRGERTRRARVSAFGISGTNAHVIVEEAPEREHRETTAHDGRPVPLVVSARTTAALRAQAAQIAELLERPDADLAGVGLGLATTRARHEHRAAVVASTREEAVRGLREIAAGAATADAVVEGVTEVDGRNVVFLFPGQGSQWAGMGAELLSSSPVFAGKIRACDESMAPMQDWKVSDVLRQAPGAPGLDRVDVVQPVLFAVMVSLAELWRSYGVEPAAVVGHSQGEIAAAHVAGALTLEDAAKLVVGRSRLMRSLSGEGGMAAVALGEAAVRERLRPWQDRLSVAAVNGPRSVVVSGEPGALRAFSEDCAAEGIRVRDIDVDYASHSPQIERVREELLETTGDIAPRPARVTFHSTVESRSMDGTELDARYWYRNLRETVRFADAVTRLAESGYDAFIEVSPHPVVVQAVEEAVEEADGAEDAVVVGSLHRDGGDLSAFLRSMATAHVSGVDIRWDVALPGAAPFALPTYPFQRKRYWLQPAAPAAASDELAYRVSWTPIEKPESGNLDGDWLVVTPLISPEWTEMLCEAINANGGRALRCEVDTSASRTEMAQAVAQAGTGFRGVLSLLSSDESACRPGVPAGAVGLLTLVQALGDAGVDAPVWCLTQGAVRTPADDDLARPAQTTAHGFAQVAGLELPGRWGGVVDLPESVDDAALRLLVAVLRGGGRAEDHLAVRDGRLHGRRVVRASLPQSGSRSWTPHGTVLVTGAASPVGDQLVRWLADRGAERLVLAGACPGDDLLAAVEEAGASAVVCAQDAAALREALGDEPVTALVHAGTLTNFGSISEVAPEEFAETIAAKTALLAVLDEVLGDRAVEREVYCSSVAGIWGGAGMAAYAAGSAYLDALAEHHRARGRSCTSVAWTPWALPGGAVDDGYLRERGLRSLSADRAMRTWERVLAAGPVSVAVADVDWPVLSEGFAATRPTALFAELAGRGGQAEAEPDSGPTGEPAQRLAGLSPDEQQENLLELVANAVAEVLGHESAAEINVRRAFSELGLDSLNAMALRKRLSASTGLRLPASLVFDHPTVTALAQHLRICCAGTAAISGPHEFTRLAGALRGIAPVRAVPQPGYEEGEPLPSSMAAVAAVQADAVIRTQGDKPFVVAGHSAGALMAYALATELLDRGHPPRGVVLIDVYPPGHQDAMNAWLEELTATLFDRETVRMDDTRLTALGAYDRLTGQWRPRETGLPTLLVSAGEPMGPWPDDSWKPTWPFEHDTVAVPGDHFTMVQEHADAIARHIDAWHHHHHH
Regarding B2, in data set [3], the “k60 µM (overall rate of product formation at 60 µM substrate)” value stood at 1.4 min-, the specificity constant (kcat/KM) stood at 6500 M⁻¹ s⁻¹ and the “triketide lactone formation at 20 µM substrate (FIG. 27 A)” value is given as “transfer of diketide from the donor ACP to the acceptor module occurred at 20 µM substrate concentration”. Further, in data set [1], the “kcat/KM, fold decrease against the matched reaction (FIG. 27 B)” value was “fell approximately 3-5 fold and 80-200 fold, respectively”; the “triketide lactone formation at 20 µM substrate (FIG. 27 B)” value is “transfer of diketide from the donor ACP to the acceptor module occurred at 20 µM substrate concentration”. In addition, the “triketide lactone formation at 20 µM substrate (FIG. 27 D)” value in data set [2] was “no product was detected at the same substrate concentrations”.
